Reference: patent US20150139990A1

How the values were obtained:
[1] = biological target: human CD81 on CD81-expressing cells (Jurkat E6.1, human PBMC, Ramos) (human) (UniProt P60033); assay: flow cytometry, human PBMC
[2] = biological target: human CD81 on CD81-expressing cells (Jurkat E6.1, human PBMC, Ramos) (human) (UniProt P60033); assay: flow cytometry, Jurkat E6.1 cells
[3] = biological target: human CD81 on CD81-expressing cells (Jurkat E6.1, human PBMC, Ramos) (human) (UniProt P60033); assay: flow cytometry, Ramos cells, 0.1 µg/mL
[4] = biological target: human CD81 on CD81-expressing cells (Jurkat E6.1, human PBMC, Ramos) (human) (UniProt P60033); assay: flow cytometry, Ramos cells, 10 µg/mL
[5] = biological target: human CD81 on CD81-expressing cells (Jurkat E6.1, human PBMC, Ramos) (human) (UniProt P60033); assay: flow cytometry, Ramos cells, 1 µg/mL
[6] = biological target: human CD81 on CD81-expressing cells (Jurkat E6.1, human PBMC, Ramos) (human) (UniProt P60033); assay: flow cytometry, Jurkat cells, 10 µg/mL
[7] = biological target: human CD81 on CD81-expressing cells (Jurkat E6.1, human PBMC, Ramos) (human) (UniProt P60033); assay: flow cytometry, Jurkat cells, 0.01 µg/mL
[8] = biological target: human CD81 on CD81-expressing cells (Jurkat E6.1, human PBMC, Ramos) (human) (UniProt P60033); assay: flow cytometry, Jurkat cells, 0.1 µg/mL
[9] = biological target: human CD81 on CD81-expressing cells (Jurkat E6.1, human PBMC, Ramos) (human) (UniProt P60033); assay: flow cytometry, Ramos cells, 0.01 µg/mL
[10] = biological target: human CD81 on CD81-expressing cells (Jurkat E6.1, human PBMC, Ramos) (human) (UniProt P60033); assay: flow cytometry, Jurkat cells, 1 µg/mL

Sequence of human CD81 on CD81-expressing cells (Jurkat E6.1, human PBMC, Ramos) (human) (P60033 whole entry): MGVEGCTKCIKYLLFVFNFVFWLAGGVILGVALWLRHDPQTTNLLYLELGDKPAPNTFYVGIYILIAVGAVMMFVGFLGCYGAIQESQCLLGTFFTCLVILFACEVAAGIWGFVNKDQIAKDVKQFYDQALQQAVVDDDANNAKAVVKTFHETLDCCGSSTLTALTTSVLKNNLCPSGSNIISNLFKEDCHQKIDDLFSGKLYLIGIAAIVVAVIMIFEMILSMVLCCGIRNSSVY

| Substance | binding ratio to cells (%) [1] | binding ratio to cells (%) [2] | geometric mean FL2 [3] | geometric mean FL2 [4] | geometric mean FL2 [5] | geometric mean FL2 [6] | geometric mean FL2 [7] | geometric mean FL2 [8] | geometric mean FL2 [9] | geometric mean FL2 [10] |
| --- | --- | --- | --- | --- | --- | --- | --- | --- | --- | --- |
| control human IgG4 (Acris) (antibody) | 1% | 1% |  |  |  |  |  |  |  |  |
| control human IgG (AbD Serotec) (antibody) |  |  | 4 | 8 | 5 | 8 | 4 | 4 | 4 | 4 |
